In PMC10397247:
One block for each binder: values may come before it.

Experiments:
Core_NINN-es_KKKK = biological target: T1, Core_NINN-es_KKKK; test: two-hybrid library CCmax; details: mean of both orientations;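 note: natural log of median RNA to DNA barcode read ratio; higher means stronger binding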
T1 chain: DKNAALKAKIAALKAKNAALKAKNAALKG

4H3497-bN = biological target: T2, 4H3497-bN; test: two-hybrid library CCNG1;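 note: natural log of median RNA to DNA barcode read ratio; higher means stronger binding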
T2 chain: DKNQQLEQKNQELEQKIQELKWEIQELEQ

4H3628-bN = biological target: T3, 4H3628-bN; test: two-hybrid library CCNG1;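 note: natural log of median RNA to DNA barcode read ratio; higher means stronger binding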
T3 chain: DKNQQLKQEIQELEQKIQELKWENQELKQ

4H626-bN = biological target: T4, 4H626-bN; test: two-hybrid library CCNG1;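 note: natural log of median RNA to DNA barcode read ratio; higher means stronger binding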
T4 chain: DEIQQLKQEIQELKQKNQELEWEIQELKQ

4H780-bN = biological target: T5, 4H780-bN; test: two-hybrid library CCNG1;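 note: natural log of median RNA to DNA barcode read ratio; higher means stronger binding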
T5 chain: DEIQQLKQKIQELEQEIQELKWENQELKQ

4H1158-bN = biological target: T6, 4H1158-bN; test: two-hybrid library CCNG1;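 note: natural log of median RNA to DNA barcode read ratio; higher means stronger binding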
T6 chain: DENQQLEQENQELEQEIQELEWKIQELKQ

4H591-bN = biological target: T7, 4H591-bN; test: two-hybrid library CCNG1
T7 chain: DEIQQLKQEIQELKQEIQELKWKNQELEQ

4H3162-bN = biological target: T8, 4H3162-bN; test: two-hybrid library CCNG1
T8 chain: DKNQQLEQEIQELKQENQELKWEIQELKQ

4H754-bN = biological target: T9, 4H754-bN; test: two-hybrid library CCNG1
T9 chain: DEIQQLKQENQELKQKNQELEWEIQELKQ

4H3277-bN = biological target: T10, 4H3277-bN; test: two-hybrid library CCNG1
T10 chain: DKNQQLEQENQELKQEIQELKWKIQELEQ

4H346-bN = biological target: T11, 4H346-bN; test: two-hybrid library CCNG1
T11 chain: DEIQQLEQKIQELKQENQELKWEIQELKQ

4H1710-bN = biological target: T12, 4H1710-bN; test: two-hybrid library CCNG1
T12 chain: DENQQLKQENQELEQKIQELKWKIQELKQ

4H2673-bN = biological target: T13, 4H2673-bN; test: two-hybrid library CCNG1
T13 chain: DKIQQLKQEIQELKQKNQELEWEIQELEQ

4H3926-bN = biological target: T14, 4H3926-bN; test: two-hybrid library CCNG1; details: mean of both orientations
T14 chain: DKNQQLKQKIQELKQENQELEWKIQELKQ

4H968-bN = biological target: T15, 4H968-bN; test: two-hybrid library CCNG1
T15 chain: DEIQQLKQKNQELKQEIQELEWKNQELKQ

4H3175-bN = biological target: T16, 4H3175-bN; test: two-hybrid library CCNG1
T16 chain: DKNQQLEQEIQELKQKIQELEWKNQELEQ

4H2702-bN = biological target: T17, 4H2702-bN; test: two-hybrid library CCNG1
T17 chain: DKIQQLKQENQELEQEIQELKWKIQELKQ

4H1544-bN = biological target: T18, 4H1544-bN; test: two-hybrid library CCNG1
T18 chain: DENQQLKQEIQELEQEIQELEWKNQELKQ

4H457-bN = biological target: T19, 4H457-bN; test: two-hybrid library CCNG1
T19 chain: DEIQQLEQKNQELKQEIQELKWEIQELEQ

4H3010-bN = biological target: T20, 4H3010-bN; test: two-hybrid library CCNG1
T20 chain: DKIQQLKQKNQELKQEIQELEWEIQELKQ

4H112-bN = biological target: T21, 4H112-bN; test: two-hybrid library CCNG1
T21 chain: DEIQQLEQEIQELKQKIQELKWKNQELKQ

4H3427-bN = biological target: T22, 4H3427-bN; test: two-hybrid library CCNG1
T22 chain: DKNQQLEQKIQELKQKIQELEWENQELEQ

4H953-bN = biological target: T23, 4H953-bN; test: two-hybrid library CCNG1
T23 chain: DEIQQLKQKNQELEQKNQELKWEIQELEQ

4H3364-bN = biological target: T24, 4H3364-bN; test: two-hybrid library CCNG1
T24 chain: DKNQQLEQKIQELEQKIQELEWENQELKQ

4H1831-bN = biological target: T25, 4H1831-bN; test: two-hybrid library CCNG1
T25 chain: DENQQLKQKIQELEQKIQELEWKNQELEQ

4H3112-bN = biological target: T26, 4H3112-bN; test: two-hybrid library CCNG1
T26 chain: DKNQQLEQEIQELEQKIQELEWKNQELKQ

4H3462-bN = biological target: T27, 4H3462-bN; test: two-hybrid library CCNG1
T27 chain: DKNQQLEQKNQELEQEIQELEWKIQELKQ

4H118-bN = biological target: T28, 4H118-bN; test: two-hybrid library CCNG1
T28 chain: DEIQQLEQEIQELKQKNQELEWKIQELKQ

4H1373-bN = biological target: T29, 4H1373-bN; test: two-hybrid library CCNG1
T29 chain: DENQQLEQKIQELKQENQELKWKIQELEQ

4H1985-bN = biological target: T30, 4H1985-bN; test: two-hybrid library CCNG1
T30 chain: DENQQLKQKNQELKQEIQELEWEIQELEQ

4H1899-bN = biological target: T31, 4H1899-bN; test: two-hybrid library CCNG1
T31 chain: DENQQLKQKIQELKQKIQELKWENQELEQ

4H170-bN = biological target: T32, 4H170-bN; test: two-hybrid library CCNG1
T32 chain: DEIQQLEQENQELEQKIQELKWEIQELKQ

4H906-bN = biological target: T33, 4H906-bN; test: two-hybrid library CCNG1
T33 chain: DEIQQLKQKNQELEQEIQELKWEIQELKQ

4H575-bN = biological target: T34, 4H575-bN; test: two-hybrid library CCNG1
T34 chain: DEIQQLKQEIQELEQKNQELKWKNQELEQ

4H918-bN = biological target: T35, 4H918-bN; test: two-hybrid library CCNG1
T35 chain: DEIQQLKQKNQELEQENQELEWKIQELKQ

4H2586-bN = biological target: T36, 4H2586-bN; test: two-hybrid library CCNG1
T36 chain: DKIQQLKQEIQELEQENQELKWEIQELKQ

4H3298-bN = biological target: T37, 4H3298-bN; test: two-hybrid library CCNG1
T37 chain: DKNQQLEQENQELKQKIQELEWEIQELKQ

4H2627-bN = biological target: T38, 4H2627-bN; test: two-hybrid library CCNG1
T38 chain: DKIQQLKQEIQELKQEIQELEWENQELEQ

4H3613-bN = biological target: T39, 4H3613-bN; test: two-hybrid library CCNG1
T39 chain: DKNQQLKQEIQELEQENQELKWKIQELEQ

4H855-bN = biological target: T40, 4H855-bN; test: two-hybrid library CCNG1
T40 chain: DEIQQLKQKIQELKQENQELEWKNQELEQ

4H1348-bN = biological target: T41, 4H1348-bN; test: two-hybrid library CCNG1
T41 chain: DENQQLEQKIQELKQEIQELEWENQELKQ

4H797-bN = biological target: T42, 4H797-bN; test: two-hybrid library CCNG1
T42 chain: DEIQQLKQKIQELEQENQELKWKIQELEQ

4H1081-bN = biological target: T43, 4H1081-bN; test: two-hybrid library CCNG1; details: mean of both orientations
T43 chain: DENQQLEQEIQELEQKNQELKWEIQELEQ

4H683-bN = biological target: T44, 4H683-bN; test: two-hybrid library CCNG1
T44 chain: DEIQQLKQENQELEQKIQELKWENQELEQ

4H4073-bN = biological target: T45, 4H4073-bN; test: two-hybrid library CCNG1
T45 chain: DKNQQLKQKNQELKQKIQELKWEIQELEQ

interaction score (Core_NINN-es_KKKK): 2
B1: Core_NINN-es_EEEE (peptide)
chain: DENAALEAEIAALEAENAALEAENAALEG

interaction score (4H3497-bN): -0.836
interaction score (4H3628-bN): -0.745
interaction score (4H626-bN): -1.12
interaction score (4H780-bN): -1.12
interaction score (4H1158-bN): -1.04
interaction score (4H591-bN): -1
interaction score (4H3162-bN): -1.74
interaction score (4H754-bN): -0.498
interaction score (4H3277-bN): -2.73
interaction score (4H346-bN): -0.916
interaction score (4H1710-bN): -2
interaction score (4H2673-bN): -0.316
interaction score (4H3926-bN): 1.86
interaction score (4H968-bN): -1.97
interaction score (4H3175-bN): -0.589
interaction score (4H2702-bN): 0.0755
interaction score (4H1544-bN): -1.22
interaction score (4H457-bN): -0.831
interaction score (4H3010-bN): -0.379
interaction score (4H112-bN): -0.856
interaction score (4H3427-bN): -0.819
interaction score (4H953-bN): -0.906
interaction score (4H3364-bN): 0.163
interaction score (4H1831-bN): -0.661
interaction score (4H3112-bN): -0.643
interaction score (4H3462-bN): -0.385
interaction score (4H118-bN): -0.492
interaction score (4H1373-bN): -1.6
interaction score (4H1985-bN): -1.65
interaction score (4H1899-bN): -0.693
interaction score (4H170-bN): -1.72
interaction score (4H906-bN): -1.43
interaction score (4H575-bN): -1.36
interaction score (4H918-bN): -1.87
interaction score (4H2586-bN): -0.764
interaction score (4H3298-bN): -1.1
interaction score (4H2627-bN): -0.602
interaction score (4H3613-bN): -1.17
interaction score (4H855-bN): -1.78
interaction score (4H1348-bN): -1.49
interaction score (4H797-bN): -0.855
interaction score (4H1081-bN): -0.711
interaction score (4H683-bN): -0.818
interaction score (4H4073-bN): -0.961
B2: 4H1081-bN (peptide)
chain: DENQQLEQEIQELEQKNQELKWEIQELEQ
